Consider four molecules from article PMC3359993.

Where two headings read alike, the source gives them in different places.

The target in assay [1] is Relish, truncated (RHD, NLS and 20 additional C-terminal residues), StrepTagII-tagged (Drosophila melanogaster). Description: SEC; gel filtration of each purified recombinant protein, compared with molecular mass standards.
Assay [2] deals with T1, Ank-H4 of Microplitis demolitor bracovirus, full length, N-terminal His tag (Microplitis demolitor bracovirus (MdBV)). Description: SPR; Biacore 3000, room temperature; IkB or Ank immobilised on CM5 by amine coupling (about 5500 RU); Rel homodimer as analyte, kinetic titration, five doubling injections (typically 160 nM to 2.56 uM), 60 or 90 s, 30 uL/min; 10 mM HEPES pH 7.4, 150 mM NaCl, 3.4 mM EDTA, 0.005% P20; 1:1 Langmuir …. (In general: SPR reads the build-up and loss of mass on a sensor chip optically.)

Assay [3] addresses Ank-N5 of Microplitis demolitor bracovirus, full length, N-terminal His tag (Microplitis demolitor bracovirus (MdBV)). The assay is described as above.
For assay [4], the target named is T2, Rel-49, the C-terminal IkB domain of Relish, N-terminal StrepTagII and C-terminal His tag (Drosophila melanogaster).
T2 sequence (Q94527 whole entry, looked up): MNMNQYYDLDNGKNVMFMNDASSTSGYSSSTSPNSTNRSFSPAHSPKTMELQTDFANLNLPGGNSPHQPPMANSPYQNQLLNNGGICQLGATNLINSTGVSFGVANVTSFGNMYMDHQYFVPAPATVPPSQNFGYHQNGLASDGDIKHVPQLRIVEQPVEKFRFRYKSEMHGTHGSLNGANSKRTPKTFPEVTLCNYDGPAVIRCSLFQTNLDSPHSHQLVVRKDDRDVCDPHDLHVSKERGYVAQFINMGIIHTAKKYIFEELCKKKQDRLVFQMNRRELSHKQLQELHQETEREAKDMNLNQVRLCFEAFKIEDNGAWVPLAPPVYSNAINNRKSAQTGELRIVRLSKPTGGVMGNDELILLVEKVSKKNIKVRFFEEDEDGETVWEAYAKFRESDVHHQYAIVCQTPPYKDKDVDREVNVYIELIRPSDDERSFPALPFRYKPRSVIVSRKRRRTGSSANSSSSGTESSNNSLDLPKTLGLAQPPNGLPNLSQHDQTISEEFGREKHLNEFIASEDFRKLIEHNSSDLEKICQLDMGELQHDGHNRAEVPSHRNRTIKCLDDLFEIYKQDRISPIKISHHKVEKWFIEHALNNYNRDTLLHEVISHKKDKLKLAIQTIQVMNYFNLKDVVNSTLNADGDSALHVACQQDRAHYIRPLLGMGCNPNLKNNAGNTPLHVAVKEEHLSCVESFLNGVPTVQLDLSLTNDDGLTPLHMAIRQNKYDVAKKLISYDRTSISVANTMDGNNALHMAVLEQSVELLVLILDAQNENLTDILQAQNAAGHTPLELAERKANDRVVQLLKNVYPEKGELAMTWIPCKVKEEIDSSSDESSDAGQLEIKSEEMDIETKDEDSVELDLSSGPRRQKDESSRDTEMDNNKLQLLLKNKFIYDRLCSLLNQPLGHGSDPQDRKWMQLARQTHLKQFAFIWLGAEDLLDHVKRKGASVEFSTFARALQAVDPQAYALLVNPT
Described as above.

Assay [5] addresses Relish, truncated (RHD, NLS and 20 additional C-terminal residues), N-terminal thioredoxin fusion (Drosophila melanogaster). Description: SEC; gel filtration of each purified recombinant protein, compared with molecular mass standards. For orientation: Size exclusion chromatography separates by hydrodynamic size, large species first.
For assay [6], the target named is Dorsal, truncated (RHD, NLS and 20 additional C-terminal residues), StrepTagII-tagged (Drosophila melanogaster). Described as above.
In assay [7] the target is T1, Ank-H4 of Microplitis demolitor …. Put plainly: SPR; Biacore 3000, room temperature; IkB or Ank immobilised on CM5 by amine coupling (about 5500 RU); Rel homodimer as analyte, kinetic titration, five doubling injections (typically 160 nM to 2.56 uM), 60 or 90 s, 30 uL/min; 10 mM HEPES pH 7.4, 150 mM NaCl, 3.4 mM EDTA, 0.005% P20; 1:1 Langmuir …. The source holds these as a separate data set.

In assay [8] the target is Dorsal, truncated (RHD, NLS and 20 additional C-terminal residues), N-terminal thioredoxin fusion (Drosophila melanogaster). Description: SEC; gel filtration of each purified recombinant protein, compared with molecular mass standards.

Sequence of Ank-N5 of Microplitis demolitor bracovirus, full length, N-terminal His tag (Microplitis demolitor bracovirus (MdBV)) (Q5I126 whole entry, the tested form may be a part): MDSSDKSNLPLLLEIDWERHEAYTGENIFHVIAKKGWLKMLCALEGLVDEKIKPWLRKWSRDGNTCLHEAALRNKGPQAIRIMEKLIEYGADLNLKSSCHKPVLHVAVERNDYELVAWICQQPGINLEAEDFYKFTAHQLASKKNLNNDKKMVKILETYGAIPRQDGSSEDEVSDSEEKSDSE
T1 sequence (Q5I144 whole entry): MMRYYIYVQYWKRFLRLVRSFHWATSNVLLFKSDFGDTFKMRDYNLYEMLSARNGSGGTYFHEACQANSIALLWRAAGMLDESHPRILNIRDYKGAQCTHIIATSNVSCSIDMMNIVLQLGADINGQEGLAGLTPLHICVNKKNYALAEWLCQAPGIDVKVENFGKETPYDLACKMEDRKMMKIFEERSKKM

B1: Relish, truncated (RHD, NLS and 20 additional C-terminal residues), StrepTagII-tagged (domain or fragment)
chain: KHVPQLRIVEQPVEKFRFRYKSEMHGTHGSLNGANSKRTPKTFPEVTLCNYDGPAVIRCSLFQTNLDSPHSHQLVVRKDDRDVCDPHDLHVSKERGYVAQFINMGIIHTAKKYIFEELCKKKQDRLVFQMNRRELSHKQLQELHQETEREAKDMNLNQVRLCFEAFKIEDNGAWVPLAPPVYSNAINNRKSAQTGELRIVRLSKPTGGVMGNDELILLVEKVSKKNIKVRFFEEDEDGETVWEAYAKFRESDVHHQYAIVCQTPPYKDKDVDREVNVYIELIRPSDDERSFPALPFRYKPRSVIVSRKRRRTGSSANSSSSGTESSNNSLD
modifications: not checked
Consider B1, for which the stoichiometry N (usually a count of units in the complex or per binding partner) in assay [1] was 2. For the same molecule, the values for the Kd in assay [2], in assay [3] and in assay [4] were 345 nM, 30300 nM and 2750 nM, respectively. For the same molecule, the off-rate (koff) (in general, the rate constant with which the complex falls apart) in assay [2] came out at 0.0067 s⁻¹; in assay [3], 0.00179 s⁻¹; in assay [4], 0.00378 s⁻¹. Further, the values for the kon in assay [2], in assay [3] and in assay [4] were 19400 M⁻¹ s⁻¹, 59 M⁻¹ s⁻¹ and 1380 M⁻¹ s⁻¹, respectively.

B2: Relish, truncated (RHD, NLS and 20 additional C-terminal residues), N-terminal thioredoxin fusion (domain or fragment)
chain: KHVPQLRIVEQPVEKFRFRYKSEMHGTHGSLNGANSKRTPKTFPEVTLCNYDGPAVIRCSLFQTNLDSPHSHQLVVRKDDRDVCDPHDLHVSKERGYVAQFINMGIIHTAKKYIFEELCKKKQDRLVFQMNRRELSHKQLQELHQETEREAKDMNLNQVRLCFEAFKIEDNGAWVPLAPPVYSNAINNRKSAQTGELRIVRLSKPTGGVMGNDELILLVEKVSKKNIKVRFFEEDEDGETVWEAYAKFRESDVHHQYAIVCQTPPYKDKDVDREVNVYIELIRPSDDERSFPALPFRYKPRSVIVSRKRRRTGSSANSSSSGTESSNNSLD
modifications: not checked
B2: the stoichiometry N in assay [5] worked out at 2.

B3: Dorsal, truncated (RHD, NLS and 20 additional C-terminal residues), StrepTagII-tagged (domain or fragment)
chain: PYVKITEQPAGKALRFRYECEGRSAGSIPGVNSTPENKTYPTIEIVGYKGRAVVVVSCVTKDTPYRPHPHNLVGKEGCKKGVCTLEINSETMRAVFSNLGIQCVKKKDIEAALKAREEIRVDPFKTGFSHRFQPSSIDLNSVRLCFQVFMESEQKGRFTSPLPPVVSEPIFDKKAMSDLVICRLCSCSATVFGNTQIILLCEKVAKEDISVRFFEEKNGQSVWEAFGDFQHTDVHKQTAITFKTPRYHTLDITEPAKVFIQLRRPSDGVTSEALPFEYVPMDSDPAHLRRKRQKTGGDPMHLLLQQQQKQQLQN
modifications: not checked
Consider B3, for which the stoichiometry N in assay [6] stood at 2. Besides, the Kd (commonly the equilibrium constant for the complex coming apart) in assay [2] was 858 nM; in assay [3], 416 nM; in assay [4] it was 783 nM; in assay [7] it was 858000 nM. For the same molecule, the koff in assay [2] turned out to be 0.0067 s⁻¹; in assay [3], 0.003 s⁻¹; in assay [4], 0.00645 s⁻¹. Further, the kon (commonly the rate constant with which the complex forms) in assay [2] amounted to 7810 M⁻¹ s⁻¹; in assay [3] it was 7230 M⁻¹ s⁻¹; in assay [4], 8240 M⁻¹ s⁻¹.

B4: Dorsal, truncated (RHD, NLS and 20 additional C-terminal residues), N-terminal thioredoxin fusion (domain or fragment)
chain: PYVKITEQPAGKALRFRYECEGRSAGSIPGVNSTPENKTYPTIEIVGYKGRAVVVVSCVTKDTPYRPHPHNLVGKEGCKKGVCTLEINSETMRAVFSNLGIQCVKKKDIEAALKAREEIRVDPFKTGFSHRFQPSSIDLNSVRLCFQVFMESEQKGRFTSPLPPVVSEPIFDKKAMSDLVICRLCSCSATVFGNTQIILLCEKVAKEDISVRFFEEKNGQSVWEAFGDFQHTDVHKQTAITFKTPRYHTLDITEPAKVFIQLRRPSDGVTSEALPFEYVPMDSDPAHLRRKRQKTGGDPMHLLLQQQQKQQLQN
modifications: not checked
For B4, the stoichiometry N in assay [8] stood at 2.
